In the data set the target is T1, Recombinant murine APRIL (Sigma SRP3189-20UG), Q9D777.
T1 chain: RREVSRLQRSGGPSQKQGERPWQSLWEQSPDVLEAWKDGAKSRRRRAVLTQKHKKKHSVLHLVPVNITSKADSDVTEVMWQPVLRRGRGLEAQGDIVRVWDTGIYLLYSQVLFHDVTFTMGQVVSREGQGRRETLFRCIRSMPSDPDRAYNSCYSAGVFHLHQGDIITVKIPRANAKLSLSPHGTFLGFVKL

B1: plant produced recombinant human Furin (truncated form, pEAQ-Furin (truncated)-His6-KDEL, produced in N. benthamiana) (protein)
chain: QGQKVFTNTWAVRIPGGPAVANSVARKHGFLNLGQIFGDYYHFWHRGVTKRSLSPHRPRHSRLQREPQVQWLEQQVAKRRTKRDVYQEPTDPKFPQQWYLSGVTQRDLNVKAAWAQGYTGHGIVVSILDDGIEKNHPDLAGNYDPGASFDVNDQDPDPQPRYTQMNDNRHGTRCAGEVAAVANNGVCGVGVAYNARIGGVRMLDGEVTDAVEARSLGLNPNHIHIYSASWGPEDDGKTVDGPARLAEEAFFRGVSQGRGGLGSIFVWASGNGGREHDSCNCDGYTNSIYTLSISSATQFGNVPWYSEACSSTLATTYSSGNQNEKQIVTTDLRQKCTESHTGTSASAPLAAGIIALTLEANKNLTWRDMQHLVVQTSKPAHLNANDWATNGVGRKVSHSYGYGLLDAGAMVALAQNWTTVAPQRKCIIDILTEPKDIGKRLEVRKTVTACLGEPNHITRLEHAQARLTLSYNRRGDLAIHLVSPMGTRSTLLAARPHDYSADGFNDWAFMTTHSWDEDPSGEWVLEIENTSEANNYGTLTKFTLVLYGTAPEGLPVPPESSGCKTLTSSQAHHHHHHKDEL
As for B1, the “in vitro cleavage of 5 µg APRIL by 25 ng Furin, 25° C., 1 h, SDS-PAGE” value was “recombinant APRIL protein is cleaved by both plant produced human Furin (25ng) or commercial Furin (25 ng) and 16.8 kDa fragment was generated”.

These data come from US20210292730.
